experiment: soluble on expression in E. coli; label from the status in PepcDB or PDB records

Sequence | soluble on expression in E. coli
SLSGNYLPRNTLVESLGHAMLKLSGWKIEGQLPALDKFVVIGAHHTSNWDFVAFLAAKFVLRLNARWFGKHTLFNGPLGGLMRRWGGIPIQRHLKLNTVDQAIQAFREHREFMLIIAPEGTRKKVDRWRMGFYHIARGAGVPVVPAALDYENRRIVIGEPFWPTGNEDADLCSLIGFYRPFIPKKPHYAFLGDEG | not soluble
MGSDKIHHHHHHMKQTILDVDLLAFEQGTRFQQAAVVDGLMRSLGTGFVVTTSDLPSALLDEAYGMLNRFFALEATTKRQFNVPEAFGQTGYTDTLVETAAGEKLPDWKEMLNWAFPLPDNHPLRQRFPTLYPEQLLPEVAVPGITRVLQTFHQTIAELQCRVLRIIATGLGCHNDFFTDLVQDAPTLTRAIRYPPMSEAPAAGHMWAAAHGDINLITALPRATAPGLQVYIDGSWVDAIAPEGQVIVNSGLMLERISNGLIPTGWHRVLAPSQANLERLSVVQFCHPKPSTLLTPLSNCVNESHPQRFAGVMAADALEEVLYKIKLMA | not soluble
MGADGGTIPKRCELVKERKKKEKLDKHVKNATKWRNCQLTQLPLKRPVIACRFGKLYNKEDVINSILSKTISKSASASHIKGPKDFVELKLTLNKDFKRGDVKGDDYNDVNQTEFICPITNVPMNGIQSFLVNWQCGCVYSEKAQQEVKSSNCHVCGGPYDATKMVILNPEPEQLELYKLKWEAEKAEKAAAKKDKAKKTAEKMEAAASLAAGSGGEASSVAPGPSGSGVGKHVDLKKKLEIAKLTGGSTSEKKAEKRKANTDIQSDPTTSDTYKKLFTTCEAAKNKTEGHWVTYNPLYY | soluble
PGAKVRVFHLLPFRREDLVPEEVLASVRDYLRTTKEQGLTMRVAMHGGNTEGDFSVSTAQALKGLFANEGIPLEFDETCANRTSETLLGAVILDDNSTHFIKHLVAQ | not soluble
MIEYAALKFNVVSDPMSETAKKVIVGMSGGVDSSVSAWLLQQQGYQVEGLFMKNWEEDDGEEYCTAAADLADAQAVCDKLGIELHTVNFAAEYWDNVFELFLAEYKAGRTPNPDILCNKEIKFKAFLEFAAEDLGADYIATGHYVRRADVDGKSRLLRGLDSNKDQSYFLYTLSHEQIAQSLFPVGELEKPQVRKIAEDLGLVTAKKKDSTGICFIGERKFREFLGRYLPAQPGKIITVDGDEIGEHQGLMYHTLGQRKGLGIGGTKEGTEEPWYVVDKDVENNILVVAQGHEHPRLMSVGLIAQQLHWVDREPFTGTMRCTVKTRYRQTDIPCTVKALDDDRIKVIFDEPVAAVTPGQSAVFYNGEVCLGGGIIEQRLPLPV | not soluble
MGSDKIHHHHHHMSRPKILYFITEDWYFCSHRLPLALAARDAGYDVAVVTNVNEHADVIRRAGIRLIPFDLSRKGMNPASELAVLARLIALYRKEKPDIVHQVAMKPVLYGSLAARLSGVSRVVNALAGLGYIFTSDQPKARFLRPVIGSAFRGLLNSRRSRLILQNQDDRAKFIRKRFISEKRIRLIRGSGVDTAVFVPTPEPPGVPVVILPSRMLWDKGVREFVDAAGQLKKRGISARFVLVGDADPHNPSAIHTEQLTAWHAEGAVEWWGRRDDMPAVFEQSHIVCLPSYREGLPKVLLEAASCGRPIVTTDTPGCRDVVRQGENGLLVPVRGTAELADALQLLIEQPALRKKMGCKGREIVVSEFALEKVVAKTMNIYRELLKP | not soluble
MSIDKSPREHWASHQERGSFMLMKLTAWGMRVLGRRLLTPVQYGIVLYFFVFGRRARHSIWEYQQRLADWSARPELRPSQRRVFGQFMAFAEALLDKLDVWNGRLGIEQIEIIDPALLRQSLRGARGQMLVGAHLGNLEVCRALAELGEKITMNVLVHTKHAERFNRLLGEAGATNLRLIQVSELDPAIMLQLSQRLDEGEWLAIAGDRVALHGGRNVRVDFLGQPATFPQGPWLLAGLLKCPVNLFFCLKGPKGYRVILEPFADAIEWRRSDRAQVIAHWATRYAERLGHYCLEAPQQWFNFYPFWKSDDESSS | not soluble
MAQTTINEQTLVNEQRLLAYDCFQNTNKVGLLSALEYLDFVNHLVKSNQIKYLLVPSASQTVYQHVFFDHFRFLSFDNNLLSGFGLAIRLHKEAETVFMLVEKTKQTETEIKKLLEAVKQFSGLKLVVLLVNSPFENKRTKLSYEIVKIIKKHGYQYKRYCRKNFEKKFFNTWNHQKRKQKTKNNLFFVELNSQFAFGTSMANSNSFDLSFTSFKERFNTENNLDIDVHFNVPHKYLLKNLESIKHHLQIDNNTIWKQAFINFAGQLLLYFENLQVFAQEASTLQVNAIVIKQDAYFIVEVMKGYNYDNNCICLLEANKDQNVGLTTASTNTLIGDIKQYEPCFFIEK | soluble

Source: the DeepSol protein solubility set
